These results are taken from patent US10786543B2, “P75NTR antagonists and treatment of acute and chronic cardiac disease” (THE JOHNS HOPKINS UNIVERSITY, priority 2015, dated 2020).

Test [1] addresses T1, p75^NTR (Mus musculus, UniProt Q9Z0W1).
T1 construct: from tissue; host or cells: living mice (heart and other tissues) after transverse aortic constriction
T1 sequence (Q9Z0W1 32-427): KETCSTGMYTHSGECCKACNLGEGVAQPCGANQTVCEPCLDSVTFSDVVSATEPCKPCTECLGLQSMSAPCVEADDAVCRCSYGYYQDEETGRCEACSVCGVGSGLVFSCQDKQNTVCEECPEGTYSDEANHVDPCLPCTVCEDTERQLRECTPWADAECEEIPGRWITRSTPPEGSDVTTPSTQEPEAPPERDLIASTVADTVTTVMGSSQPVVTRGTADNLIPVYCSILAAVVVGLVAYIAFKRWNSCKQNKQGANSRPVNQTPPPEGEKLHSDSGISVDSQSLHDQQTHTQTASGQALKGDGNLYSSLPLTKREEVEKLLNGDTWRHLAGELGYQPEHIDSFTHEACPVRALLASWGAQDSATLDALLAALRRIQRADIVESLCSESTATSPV
Briefly: Transverse aortic constriction (TAC) pressure overload/heart failure with chronic P75NTR antagonist infusion, echocardiography. The note with it: TAC mice; chronic infusion for 5 weeks, instituted 1 week after TAC; 200 μg/kg/day s.c. osmotic pump; FIG. 3. It is filed as in vivo. The protocol:
Transverse aortic constriction (TAC) was performed following a previously reported protocol (J. Clin. Invest., 2005; 115(5):1221-31; Circ. Res., 2010; 106(1):193-202; Antioxid Redox Signal 2014; 20(2):267-80). After induction of anesthesia and intubation, mice were placed on a volume ventilator (120 breaths/min, 1.2 ml/g/min) and anesthesia was maintained with […] isofluorane. The aortic arch was isolated and tied against a 27-gauge needle, resulting in a 65-70% constriction after the removal of the needle. The chest and skin were closed and animals extubated and allowed to fully recover. Sham-operated mice underwent the same operation except that after the aortic arch was isolated, no ligature was placed. The ALZET osmotic pump (Model 2004) with P75^NTR peptidic antagonist (200 μg/kg/day) or saline vehicle was placed subcutaneously one week after TAC. P75^NTR antagonistic cyclic peptide (CATDIKGAEC) (SEQ ID NO: 1) was synthesized at the Johns Hopkins Synthesis and Sequencing Facility. […]
In vivo cardiac morphology and function were assessed by serial M-mode echocardiography (Acuson Sequioa C256, 13 MHz transducer, Siemens, Pa.) performed in conscious mice. […] LV percent FS, EF and LV mass were calculated as described previously. […]

The test system of test [2] is isolated p75^NTR-/- whole hearts. Description: LV function and coronary tone in Langendorff-perfused isolated p75^NTR-/- whole hearts infused with proBDNF. Further details: species or system mouse. The note with it: hearts of mice lacking p75^NTR; FIG. 7. The text has this: (§1) After anesthesia, hearts were harvested and the aorta cannulated and retrogradely perfused with Krebs-Henseleit (KH) buffer warmed and gassed with 95% O2 and 5% CO2, as reported previously (Antioxid. Redox Signal, 2013; 19(11):1185-97). Briefly, hearts were paced at 600 bpm (10 Hz, 4 ms duration, 4 V) and LV function monitored with a water-filled balloon, connected to a pressure transducer coupled to a continuous data recording system. After stabilization, in addition to LV function parameters, baseline values of coronary perfusion pressure (CPP) were obtained through a side-arm of the aortic cannula connected to a separate pressure transducer.

Test [3] deals with control mouse hearts. Briefly: LV function and coronary tone in Langendorff-perfused control mouse hearts infused with proBDNF.
Text: as §1

The test system of test [4] is isolated healthy mouse myocytes. Briefly: Sarcomere shortening and whole Ca^2+ transient in isolated healthy mouse myocytes. It is filed as cell-based. Particulars: directly applied to isolated healthy mouse myocytes. Here is the method:
Isolation of rat and mouse ventricular myocytes was carried out as previously described and approved by the Animal Care and Use Committee of Johns Hopkins University. Mice were anesthetized with intraperitoneal pentobarbital sodium (100 mg/kg). To assess for sarcomere shortening, cells were imaged using field stimulation (0.5 Hz) in an inverted fluorescence microscope (Diaphot 200; Nikon, Inc). Sarcomere length was measured by real-time Fourier transform (IonOptix MyoCam, CCCD100M). Twitch amplitude is expressed as a percentage of resting cell length. Twitch kinetics was quantified by measuring the time to peak shortening and the time from peak shortening to 50% relaxation. For whole Ca^2+ transient measurements, myocytes were loaded with the Ca^2+ indicator fluo-4/A M (Molecular Probes, 20 μM for 30 min) and Ca^2+ transients were measured under field-stimulation (0.5 Hz) in perfusion solution by confocal laser scanning microscope (LSM510, Carl Zeiss). Digital image analysis used customer-designed programs coded in Interactive Data Language (IDL).

Ends that are not written are not given here.

For the molecule CATDIKGAEC (also: cyclic), in test [1], the LV ejection fraction result is recorded as “preserved”.

B1: proBDNF: uncleaved (immature) neurotrophin, pro-brain derived neurotrophic factor, activates p75^NTR (protein, UniProt P23560 19-247, looked up)
pro-form: APMKEANIRGQGGLAYPGVRTHGTLESVNGPKAGSRGLTSLADTFEHVIEELLDEDQKVRPNEENNKDADLYTSRVMLSSQVPLEPPLLFLLEEYKNYLDAANMSMRVRRHSDPARRGELSVCDSISEWVTAADKKTAVDMSGGTVTVLEKVPVSKGQLKQYFYETKCNPMGYTKEGCRGIDKRHWNSQCRTTQSYVRALTMDSKKRIGWRFIRIDTSCVCTLTIKRGR
modifications: pro-form
As for B1, in test [2], the LV function result is “does not alter” and the coronary vascular tone result was “does not alter”. Besides, in test [3] (FIG. 4A), the “coronary perfusion pressure (CPP), vasoconstriction” value is on record as “markedly higher”. Further, in test [3] (FIG. 4F), the “overall left-ventricle (LV) function: relaxation” value is listed as “reducing”. Also, in test [3] (FIGS. 4B, D and E), the “overall left-ventricle (LV) function: contractility” value is reported as “reducing”. In addition, in test [4] (FIGS. 5 and 6 lower panels), the “amplitude of the whole Ca^2+ transient” value is given as “reduces” and the “diastolic Ca^2+ levels” value is on record as “rise”. The “contractility (extent of sarcomere shortening)” value in test [4] (FIGS. 5 and 6 upper panels) is reported as “reduces”.
